Measurements taken from patent US10047131B2, “Peptides and combination of peptides for use in immunotherapy against ovarian cancer and other cancers” (immatics biotechnologies GmbH, priority 2015, dated 2018).

Target: HLA-A*02:01 (Homo sapiens, UniProt P04439, D140Y/D185E/D98H/E176V/E277Q/G131W/G231S/I119V/I121R/I166T/I218V/L300P/L318F/N151K/N90K/P208A/P217A/Q86G/Q94H/R138H/R169H/T345S)
Experiment: MHC binding assay (UV-ligand exchange, ELISA of exchange yield)
Settings: binding to HLA-A*02:01, UV-ligand exchange
Method in brief: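 Peptide–MHC complexes made by UV-ligand exchange, where a UV-cleavable peptide is replaced by the test peptide. Exchange yield measured by ELISA: complexes diluted 100-fold on streptavidin-coated plates, stabilized complexes detected with HRP anti-β2m, TMB read at 450 nm.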

| Substance | Peptide exchange (MHC class I binding score, peptide exchange yield) |
| --- | --- |
| 392 (ALLHPQGFEV; listed as Homo sapiens) [compound 392] | “++” (≥20% = ++) |
| 611 (YLLDDGTLVV; listed as Homo sapiens) [compound 611] | “++++” (≥75% = ++++) |
| 568 (TLYDIAHTPGV; listed as Homo sapiens) [compound 568] | “++++” (≥75% = ++++) |
| 556 (FLTDLEDLTL; listed as Homo sapiens) [compound 556] | “+++” (≥50 = +++) |
| 356 (KLLGKLPEL; listed as Homo sapiens) [compound 356] | “+++” (≥50 = +++) |
| 75 (GLLEVMVNL; listed as Homo sapiens) [compound 75] | “+++” (≥50 = +++) |
| 610 (LLAPTPYIIGV; listed as Homo sapiens) [compound 610] | “+++” (≥50 = +++) |
| 119 (FLYIGDIVSL; listed as Homo sapiens) [compound 119] | “++++” (≥75% = ++++) |
| 433 (AMLNEPWAV; listed as Homo sapiens) [compound 433] | “+++” (≥50 = +++) |
| 170 (RLQETLSAA; listed as Homo sapiens) [compound 170] | “+++” (≥50 = +++) |
| 188 (GLFPVTPEAV; listed as Homo sapiens) [compound 188] | “+++” (≥50 = +++) |
| 106 (LLYDAVHIVSV; listed as Homo sapiens) [compound 106] | “+++” (≥50 = +++) |
| 11 (KIFEMLEGV; listed as Homo sapiens) [compound 11] | “+++” (≥50 = +++) |
| 184 (YLMDINGKMWL; listed as Homo sapiens) [compound 184] | “+++” (≥50 = +++) |
| 196 (YLYSVEIKL; listed as Homo sapiens) [compound 196] | “++++” (≥75% = ++++) |
| 472 (KLLEVSDDPQV; listed as Homo sapiens) [compound 472] | “+++” (≥50 = +++) |
| 256 (FLPPEHTIVYI; listed as Homo sapiens) [compound 256] | “+++” (≥50 = +++) |
| 367 (SLQNHNHQL; listed as Homo sapiens) [compound 367] | “+++” (≥50 = +++) |
| 149 (NLLELFVQL; listed as Homo sapiens) [compound 149] | “+++” (≥50 = +++) |
| 593 (GLPRFGIEMV; listed as Homo sapiens) [compound 593] | “+++” (≥50 = +++) |
| 577 (VMFEDGVLMRL; listed as Homo sapiens) [compound 577] | “+++” (≥50 = +++) |
| 336 (ILLTAIVQV; listed as Homo sapiens) [compound 336] | “+++” (≥50 = +++) |
| 313 (VLFDDELLMV; listed as Homo sapiens) [compound 313] | “+++” (≥50 = +++) |

| Substance | Peptide exchange (MHC class I binding score, peptide exchange yield) |
| --- | --- |
| 601 (SAFPFPVTV; listed as Homo sapiens) [compound 601] | “+++” (≥50 = +++) |
| 326 (FLPEALDFV; listed as Homo sapiens) [compound 326] | “+++” (≥50 = +++) |
| 548 (ALWENPESGEL; listed as Homo sapiens) [compound 548] | “++” (≥20% = ++) |
| 227 (ALMNTLLYL; listed as Homo sapiens) [compound 227] | “++” (≥20% = ++) |
| 405 (ALYDVFLEV; listed as Homo sapiens) [compound 405] | “++” (≥20% = ++) |
| 23 (VLLDDIFAQL; listed as Homo sapiens) [compound 23] | “+++” (≥50 = +++) |
| 359 (YLLPESVDL; listed as Homo sapiens) [compound 359] | “+++” (≥50 = +++) |
| 562 (YLEELPEKLKL; listed as Homo sapiens) [compound 562] | “+++” (≥50 = +++) |
| 113 (GLLPTPLFGV; listed as Homo sapiens) [compound 113] | “+++” (≥50 = +++) |
| 189 (ALQRKLPYV; listed as Homo sapiens) [compound 189] | “+++” (≥50 = +++) |
| 488 (FLAEDPKVTL; listed as Homo sapiens) [compound 488] | “+++” (≥50 = +++) |
| 253 (GLDAATATV; listed as Homo sapiens) [compound 253] | “++” (≥20% = ++) |
| 518 (KLNAEVACV; listed as Homo sapiens) [compound 518] | “+++” (≥50 = +++) |
| 117 (ILPDGEDFLAV; listed as Homo sapiens) [compound 117] | “+++” (≥50 = +++) |
| 66 (FLDENIGGVAV; listed as Homo sapiens) [compound 66] | “+++” (≥50 = +++) |
| 551 (KLYESLLPFA; listed as Homo sapiens) [compound 551] | “+++” (≥50 = +++) |
| 83 (ILAPTVMMI; listed as Homo sapiens) [compound 83] | “+++” (≥50 = +++) |
| 538 (LLLAHIIAL; listed as Homo sapiens) [compound 538] | “++” (≥20% = ++) |
| 299 (YLLETSGNL; listed as Homo sapiens) [compound 299] | “+++” (≥50 = +++) |
| 210 (LLLNAVLTV; listed as Homo sapiens) [compound 210] | “++” (≥20% = ++) |
| 379 (IMEGTLTRV; listed as Homo sapiens) [compound 379] | “++” (≥20% = ++) |
| 251 (ALYTGFSILV; listed as Homo sapiens) [compound 251] | “++” (≥20% = ++) |
| 591 (SMAELDIKL; listed as Homo sapiens) [compound 591] | “+++” (≥50 = +++) |

| Substance | Peptide exchange (MHC class I binding score, peptide exchange yield) |
| --- | --- |
| 26 (ALLELAEEL; listed as Homo sapiens) [compound 26] | “+++” (≥50 = +++) |
| 537 (TLAPGEVLRSV; listed as Homo sapiens) [compound 537] | “+++” (≥50 = +++) |
| 602 (YLLEQIKLIEV; listed as Homo sapiens) [compound 602] | “++++” (≥75% = ++++) |
| 15 (VLLTFKIFL; listed as Homo sapiens) [compound 15] | “++” (≥20% = ++) |
| 238 (YLISFQTHI; listed as Homo sapiens) [compound 238] | “+++” (≥50 = +++) |
| 182 (MLLEAPGIFL; listed as Homo sapiens) [compound 182] | “+++” (≥50 = +++) |
| 559 (VTVPPGPSL; listed as Homo sapiens) [compound 559] | “++” (≥20% = ++) |
| 614 (LLLPDQPPYHL; listed as Homo sapiens) [compound 614] | “+++” (≥50 = +++) |
| 478 (YLLHEKLNL; listed as Homo sapiens) [compound 478] | “+++” (≥50 = +++) |
| 265 (LLFGGTKTV; listed as Homo sapiens) [compound 265] | “++” (≥20% = ++) |
| 8 (FTLGNVVGMYL; listed as Homo sapiens) [compound 8] | “++++” (≥75% = ++++) |
| 335 (YSLSSVVTV; listed as Homo sapiens) [compound 335] | “+++” (≥50 = +++) |
| 375 (SLTETIEGV; listed as Homo sapiens) [compound 375] | “++” (≥20% = ++) |
| 48 (ALAELYEDEV; listed as Homo sapiens) [compound 48] | “+++” (≥50 = +++) |
| 269 (RVLEVGALQAV; listed as Homo sapiens) [compound 269] | “++” (≥20% = ++) |
| 377 (FLLDSSASV; listed as Homo sapiens) [compound 377] | “++” (≥20% = ++) |
| 19 (FMVDNEAIYDI; listed as Homo sapiens) [compound 19] | “++++” (≥75% = ++++) |
| 453 (KLLEATSAV; listed as Homo sapiens) [compound 453] | “++” (≥20% = ++) |
| 351 (SLIPNLRNV; listed as Homo sapiens) [compound 351] | “+++” (≥50 = +++) |
| 555 (YVLEGLKSV; listed as Homo sapiens) [compound 555] | “+++” (≥50 = +++) |
| 155 (RVANLHFPSV; listed as Homo sapiens) [compound 155] | “+++” (≥50 = +++) |
